Test results: article doi:10.1101/2021.03.04.433768 (bioRxiv, 2021)

Molecular target: HexaPro, a prefusion construct of the SARS-CoV-2 spike (SARS-CoV-2, Wuhan-Hu-1 reference spike …, UniProt P0DTC2, stabilised)
Assay: negative-stain EM

B1: Nb56 (llama nanobody, monomer) (VHH)
VHH: QVQLQESGGGLVQAGDSLRLSCVASERTFRRYGMGWFRQAPGKEREFVAAVDRSHTKTGYADFVKGRFTISTNYENMVYLQMNSLKPEDTAVYYCAAPSYEKGSDPTSWNTDRGYDYWGQGTQVTVSS
B1: binds.
